{"source": "patent US20070243170A1", "about": "(UNIVERSITY OF CHICAGO, published 2007)", "key": {"[1]": {"target": "HveA (formerly HveM) (UniProt Q92956)", "assay": "cell-based or functional assay"}, "[2]": {"target": "Nectin-1 (HveC) (UniProt Q15223)", "assay": "cell-based or functional assay"}, "[3]": {"target": "wild-type gD1-60 polypeptide (residues 1-60 of mature gD; plasmid pGG5414) (herpes simplex virus 1, UniProt P36318 26-85)", "assay": "co-immunoprecipitation with anti-Myc from HEK293 cells co-transfected with pGG5417+pGG5414"}}, "data": [{"molecule": "IL13-gD chimeric glycoprotein D of recombinant virus R5141 (IL13 in the place of gD residues 1-32, V34S)", "values": [{"measurement": "Replication of R5141 in J-HveA cells (virus yield)", "setting": "[1]", "value": 40}, {"measurement": "Replication of R5141 in J-Nectin cells (virus yield)", "setting": "[2]", "value": 70}]}, {"molecule": "IL13-gD chimeric glycoprotein D of recombinant virus R5144 (IL13 in the place of gD residues 1-32, V37S)", "values": [{"measurement": "Replication of R5144 in J-HveA cells (virus yield)", "setting": "[1]", "value": 300}, {"measurement": "Replication of R5144 in J-Nectin cells (virus yield)", "setting": "[2]", "value": 50}]}, {"molecule": "gD219-314 polypeptide (mature gD residues 219-314, without transmembrane and cytoplasmic domains, Myc epitope at the C-terminus; plasmid pGG5417) (other, Expressed in HEK293 cells under the CMV promoter; also called C-terminal domain of gD; R5417) MLPRFIPENQRTVAVYSLKIAGWHGPKAPYTSTLLPPELSETPNATQPELAPEDPEDSALLEDPVGTVVPQIPPNWHIPSIQDAATPYHPPATPNN", "values": [{"measurement": "binding result", "setting": "[3]", "value": "no binding"}]}]}
